Literature values as cited in patent US9150638B2, “Factor XII inhibitors for treating interstitial lung disease” (Justus-Liebig-Universität Giessen, priority 2010, dated 2015).

Biological target: T1, FXIIa (Homo sapiens, UniProt P00748)
T1 sequence (P00748 373-615 limits assumed): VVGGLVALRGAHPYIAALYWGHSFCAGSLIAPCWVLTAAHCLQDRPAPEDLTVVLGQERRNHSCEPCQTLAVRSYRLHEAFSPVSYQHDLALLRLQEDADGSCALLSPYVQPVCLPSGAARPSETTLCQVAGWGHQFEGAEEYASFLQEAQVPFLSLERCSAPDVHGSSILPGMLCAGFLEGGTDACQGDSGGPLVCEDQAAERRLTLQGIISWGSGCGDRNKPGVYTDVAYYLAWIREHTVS
T1 sequence (P00748 20-372 partner limits assumed): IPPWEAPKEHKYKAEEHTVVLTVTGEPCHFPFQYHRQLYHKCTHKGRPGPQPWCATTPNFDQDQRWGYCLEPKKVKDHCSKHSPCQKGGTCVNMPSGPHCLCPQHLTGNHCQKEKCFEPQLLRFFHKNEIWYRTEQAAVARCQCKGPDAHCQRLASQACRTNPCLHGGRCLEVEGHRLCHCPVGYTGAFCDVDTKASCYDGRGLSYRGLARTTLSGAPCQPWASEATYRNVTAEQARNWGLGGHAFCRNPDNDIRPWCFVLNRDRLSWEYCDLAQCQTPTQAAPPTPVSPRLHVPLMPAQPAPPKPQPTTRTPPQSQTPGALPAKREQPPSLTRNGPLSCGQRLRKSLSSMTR
Details: cited from earlier work

With “Infestin-4: Kazal-type serine protease inhibitor domain 4 from Triatoma infestans, FXIIa inhibitor (SEQ ID NO: 33) (EVRNPCACFRNYVPVCGSDGKTYGNPCMLNCAAQTKVPGLKLVHEGRC; Triatoma infestans)” as the substance, how does the “prolonging activated partial thromboplastin time” value read?
Its value is “approximately three-fold”.
